Changes are numbered by the printed parent chain.
B1: A022600427 (protein)
chain: DVQLVESGGGVVQPGGSLRLSCVASGYVHKINFYGWYRQAPGKEREKVAHISIGDQTDYADSAKGRFTISRDESKNTVYLQMNSLRPEDTAAYYCRALSRIWPYDYWGQGTLVTVSSGGGGSEVQLVESGGGVVQPGGSLRLSCAASGFTFSSFAMTWVRRPPGKGLEWVATITNAGVTSYADSVKGRFTISRDNAKNTLYLQMNSLRPEDTALYICANARRTGPRAPTDIGSYRGQGTLVTVSSGGGGSGGGSEVQLVESGGGVVQPGGSLRLSCAASGSIFRSVFSSSTMEWYRQAPGKKRELVARIAPGEGTYYGALYADSVKGRFTISRDNAKNTVYLQMNSLRPEDTALYYCASGVAWGQGTLVTVSSGGGGSGGGSEVQLVESGGGVVQPGGSLRLSCAASGFTFRSFGMSWVRQAPGKGPEWVSSISGSGSDTLYADSVKGRFTISRDNSKNTLYLQMNSLRPEDTALYYCTIGGSLSRSSQGTLVTVSSA
B2: A022600462 (protein)
chain: B1 chain with D61E, W102Y, A176K

Tests used:
[1] = molecular target: cynomolgus T cell receptor (TCRαβ) on primary cynomolgus T cells (cynomolgus); test: cell-based or functional assay
[2] = molecular target: human T cell receptor (TCRαβ) on primary human T cells (human); test: cell-based or functional assay
Chain of human T cell receptor (TCRαβ) on primary human T cells (human) (P0DTU3 134-275, chain 1 of 2): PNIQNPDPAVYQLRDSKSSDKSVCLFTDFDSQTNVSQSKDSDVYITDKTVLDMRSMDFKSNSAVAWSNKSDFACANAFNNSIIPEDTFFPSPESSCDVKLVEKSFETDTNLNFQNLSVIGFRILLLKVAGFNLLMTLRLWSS
Chain of human T cell receptor (TCRαβ) on primary human T cells (human) (P01850 other isoform, or with tags, fused parts or gaps, chain 2 of 2, further chain): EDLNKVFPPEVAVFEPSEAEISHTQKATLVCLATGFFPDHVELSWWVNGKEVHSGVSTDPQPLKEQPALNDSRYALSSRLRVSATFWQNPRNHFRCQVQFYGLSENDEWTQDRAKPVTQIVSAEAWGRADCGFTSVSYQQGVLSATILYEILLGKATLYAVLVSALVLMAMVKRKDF

Binder | IC50 (M), cynomolgus T cell mediated HuH-7 cell killing, Cynomolgus Donor #1 [1] [M] | IC50 (M), cynomolgus T cell mediated HuH-7 cell killing, Cynomolgus Donor #2 [1] [M] | IC50 (M), human T cell mediated HuH-7 cell killing, Human Donor #1 [2] [M] | IC50 (M), human T cell mediated HuH-7 cell killing, Human Donor #2 [2] [M]
B1 | 2.3e-08 | 2.5e-10 | 3e-10 | 1.1e-10
B2 | 3.9e-09 | 2.2e-10 | 2.8e-10 | 1e-10

Reference: US20240109965A1
